Results published in patent publication US20240279280A1 (CAMBRIDGE ENTERPRISE, published 2024).
Several values for one entry are separate records, joined by “and”; a condition that tells them apart may be missing. Equal values may be shown once. Positions of bridges follow the written chain, without caps; N, C: chain ends. Non-standard residues stand in square brackets, D forms with d. No end group written: not given here. *: point of attachment. Phe(3,4,5-F3) = N[C@@H](Cc1cc(F)c(F)c(F)c1)C(=O)O; Myristoyl = CCCCCCCCCCCCCC(=O)*; pGlu = O=C1CC[C@@H](C(=O)O)N1; Nle = CCCC[C@H](N)C(=O)O; Abu = CC[C@H](N)C(=O)O; Aib = CC(C)(N)C(=O)O

T1: human apelin receptor (human, UniProt P35414 1-380)
T1 construct: whole, on cells; also called AGTRL1; APJ
T1 sequence (looked up): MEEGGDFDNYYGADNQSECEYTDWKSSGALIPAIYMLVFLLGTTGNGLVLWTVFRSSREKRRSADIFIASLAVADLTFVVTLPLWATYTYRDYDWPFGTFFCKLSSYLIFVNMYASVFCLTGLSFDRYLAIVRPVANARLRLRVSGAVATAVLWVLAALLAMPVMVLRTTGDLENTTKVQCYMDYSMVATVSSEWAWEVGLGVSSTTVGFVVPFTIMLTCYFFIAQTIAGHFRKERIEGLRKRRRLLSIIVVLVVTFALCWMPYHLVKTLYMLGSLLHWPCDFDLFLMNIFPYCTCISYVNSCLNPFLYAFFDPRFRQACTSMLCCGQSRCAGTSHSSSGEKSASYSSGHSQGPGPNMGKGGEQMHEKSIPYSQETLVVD

B1: MM193 (peptide)
peptide: CRPR[Nle]CKHCR[Aib]R[Nle][Phe(3,4,5-F3)]
modifications: cysteine pairing not given here
notes: also called CRPR-Nle-CKHCR-Aib-R-Nle-(3,4,5-trifluoro-)F
B2: MM54 (peptide)
peptide: CRPRLCKHCRPRLC
modifications: disulfide 1-6, 9-14
notes: Previously published macrocyclic comparator; also called cyclo(1-6)CRPRLC-KH-cyclo(9-14)CRPRLC
B3: MM262 (peptide)
peptide: QRPR[Nle]CKHCR[Aib]R[Nle][Phe(3,4,5-F3)]
modifications: cysteine pairing not given here
notes: also called QRPR-Nle-CKHCR-Aib-R-Nle-(3,4,5-trifluoro-)F
B4: MM302 (peptide)
peptide: CRPR[Nle]CHKCR[Aib]R[Nle][Phe(3,4,5-F3)]
modifications: cysteine pairing not given here
notes: also called CRPR-Nle-CHKCR-Aib-R-Nle-(3,4,5-trifluoro-)F
B5: MM300 (peptide)
peptide: Myristoyl-CRPR[Nle]CKHCR[Aib]R[Nle][Phe(3,4,5-F3)]
modifications: cysteine pairing not given here
notes: also called Myristoyl-CRPR-Nle-CKHCR-Aib-R-Nle-(3,4,5-trifluoro-)F

target: T1, human apelin receptor; experiment: radioligand competition vs [Glp65,Nle75,Tyr77][125I]apelin-13 on human left ventricle homogenate
Method: Equilibrium was broken by centrifugation (20,000 g for 10 min, 4° C.). Pellets were washed with Tris-HCl buffer (50 mmol/L, pH 7.4, 4° C.), re-centrifuged and bound radioactivity in the final pellets counted. Data from triplicate experiments were analysed using the iterative non-linear curve fitting programs EBDA and LIGAND (KELL package, Biosoft, UK) or GraphPad Prism 6 to derive values of affinity (expressed as either the equilibrium dissociation constant KD or the negative log₁₀ of the dissociation constant, pKᵢ±sem) and receptor density (BMAX±sem in fmoles bound per mg protein).

| Binder | HLV pKi |
| --- | --- |
| B1 | 6.12 |

target: T1, human apelin receptor; experiment: cell-based or functional assay

| Binder | DRx cAMP pA2 | DRx β-Arrestin pA2 |
| --- | --- | --- |
| Myristoyl-ARPR[Nle][Abu]KH[Abu]R[Aib]R[Nle][Phe(3,4,5-F3)] [MM315] | 8.52 and 8.11 |  |
| [pGlu]RPR[Nle]CKHCR[Aib]R[Nle][Phe(3,4,5-F3)] (cysteine pairing not given here) [MM297] | 6.08 and 6.14 | 7.38 |
| Myristoyl-ARPR[Nle][Abu]HK[Abu]R[Aib]R[Nle][Phe(3,4,5-F3)] [MM316] | 7.41 and 7.88 |  |
| CRPR[Nle][Abu]KHCR[Aib]R[Nle][Phe(3,4,5-F3)] (cysteine pairing not given here) [MM298] | 7.59 and 7.12 | 7.76 |
| CRPR[Nle]CKH[Abu]R[Aib]R[Nle][Phe(3,4,5-F3)] (cysteine pairing not given here) [MM299] | 7.32 and 6.95 | 8.1 and 8.53 |
| ARPR[Nle]CKH[Abu]R[Aib]R[Nle][Phe(3,4,5-F3)] [MM312] | 6.6 and 6.84 |  |
| ARPR[Nle][Abu]KH[Abu]R[Aib]R[Nle][Phe(3,4,5-F3)] [MM314] | 6.43 and 6.71 |  |
| Ac-ARPR[Nle]CKH[Abu]R[Aib]R[Nle][Phe(3,4,5-F3)] [MM313] | 6.66 and 6.92 |  |

target: T1, human apelin receptor; experiment: cell-based or functional assay; remark: another data set of the same source

| Binder | DRx cAMP assay EC50 (weak agonist activity) [nM] |
| --- | --- |
| B2 | 1400 |

target: T1, human apelin receptor; experiment: binding to human left ventricle

| Binder | Kd [nM] |
| --- | --- |
| B2 | 358 |

target: T1, human apelin receptor; experiment: cell-based or functional assay; remark: another data set of the same source

| Binder | DRx β-Arrestin pA2 | DRx cAMP pD2 |
| --- | --- | --- |
| B1 | 7.68 |  |
| B3 | 7.53 |  |
| CRPRLCHKCRPRLC [MM107] | 7.24 |  |
| CRPRLCKHCRPRLC (Linear peptide) [MM108] | 7.41 |  |
| B2 |  | 5.86 |

target: T1, human apelin receptor; experiment: radioligand competition vs [Glp65,Nle75,Tyr77][125I]apelin-13 on CHO-K1 cells expressing human apelin receptor (Cerep); Cheng-Prusoff
Method: Binding assays were performed by Cerep (Celle L'Evescault, France) on Chinese Hamster Ovary (CHO-K1) cells expressing the human apelin receptor. […] The results were expressed as a percent of control specific binding ((measured specific binding/control specific binding)×100) and as a percent inhibition of control specific binding (100−((measured specific binding/control specific binding)×100)) obtained in the presence of the test compounds. […] Results showing an inhibition between 20% and 50% were indicative of weak to moderate effects.

| Binder | Ki |
| --- | --- |
| B1 | 19 nM |
| B3 | 34 nM |
| CRPRLCHKCRPRLC [MM107] | 180 nM |
| Myristoyl-ARPR[Nle][Abu]KH[Abu]R[Aib]R[Nle][Phe(3,4,5-F3)] [MM315] | 3 nM and 2.7 nM |
| [pGlu]RPR[Nle]CKHCR[Aib]R[Nle][Phe(3,4,5-F3)] (cysteine pairing not given here) [MM297] | 55 nM |
| Myristoyl-ARPR[Nle][Abu]HK[Abu]R[Aib]R[Nle][Phe(3,4,5-F3)] [MM316] | 3 nM and 2.8 nM |
| B4 | 17 nM |
| CRPR[Nle][Abu]KHCR[Aib]R[Nle][Phe(3,4,5-F3)] (cysteine pairing not given here) [MM298] | 16 nM |
| CRPRLCKHCRPRLC (Linear peptide) [MM108] | 140 nM |
| CRPR[Nle]CKH[Abu]R[Aib]R[Nle][Phe(3,4,5-F3)] (cysteine pairing not given here) [MM299] | 6.1 nM |
| ARPR[Nle]CKH[Abu]R[Aib]R[Nle][Phe(3,4,5-F3)] [MM312] | 190 nM and 160 nM |
| B5 | 13 nM |
| B2 | 82 nM |
| ARPR[Nle][Abu]KH[Abu]R[Aib]R[Nle][Phe(3,4,5-F3)] [MM314] | 10 nM and 8.9 nM |
| Ac-ARPR[Nle]CKH[Abu]R[Aib]R[Nle][Phe(3,4,5-F3)] [MM313] | 53 nM and 47 nM |
